Reference: paper PMC6411835

Key:
[1] = biological target: T1, Zip2(499-704);Spo16 (Saccharomyces cerevisiae;Saccharomyces …, UniProt P53061;P17122 499-704;1-198, |); assay: EMSA
T1 sequence 1: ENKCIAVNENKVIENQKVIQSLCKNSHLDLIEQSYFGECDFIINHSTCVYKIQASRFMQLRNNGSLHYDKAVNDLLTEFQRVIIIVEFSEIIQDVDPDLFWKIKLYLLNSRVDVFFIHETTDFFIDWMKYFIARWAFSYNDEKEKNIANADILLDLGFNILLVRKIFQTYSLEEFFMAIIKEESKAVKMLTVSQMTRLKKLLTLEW
T1 sequence 2: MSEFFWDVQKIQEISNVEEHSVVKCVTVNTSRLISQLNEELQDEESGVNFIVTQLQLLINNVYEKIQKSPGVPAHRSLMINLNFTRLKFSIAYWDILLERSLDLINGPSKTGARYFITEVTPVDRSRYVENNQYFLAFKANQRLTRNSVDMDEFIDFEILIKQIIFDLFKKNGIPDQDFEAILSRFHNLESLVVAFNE

[2] = biological target: T1, Zip2(499-704);Spo16; assay: ITC
[3] = biological target: T1, Zip2(499-704);Spo16; assay: EMSA; remark: listed apart in the source

B1: 40-bp dsDNA (dsDNA)
DNA 1: CCTTTCGAAGACTCATCACGGAGAGCAGACATCATCTGGC
DNA 2: GCCAGATGATGTCTGCTCTCCGTGATGAGTCTTCGAAAGG
[1]
  Kd: 14 µM

B2: 5'-overhang DNA (mixed)
DNA 1: CCTTTCGAAGACTCATCACGGAGAGCAGACATCATCTGGC
DNA 2: GCCAGATGATGTCTGCTCTC
[1]
  Kd: 9 µM

B3: 3'-overhang DNA (mixed)
DNA 1: CCTTTCGAAGACTCATCACGGAGAGCAGACATCATCTGGC
DNA 2: CGTGATGAGTCTTCGAAAGG
[1]
  Kd: 17 µM

B4: Holliday Junction (HJ) (structured_DNA)
DNA 1: CCTTTCGAAGACTCATCACGGAGAGCAGACATCATCTGGC
DNA 2: ATATATGATTCTAATAAGATCGTGATGAGTCTTCGAAAGG
DNA 3: GCCAGATGATGTCTGCTCTCGTCGTAATGTAAGTGTATGC
DNA 4: GCATACACTTACATTACGACATCTTATTAGAATCATATAT
[2]
  Kd: ~1 µM
[3]
  Kd: 5 µM
